From patent US20150010566A1 (AIMM THERAPEUTICS B V, published 2015)

B1: AT10-001 (antibody, V domains shown)
VH: EVQLLESGGGLVQPGGSLRLSCAASGFSFSTYAMSWVRQAPGKGLEWVSGISGSGESTYYADSVKGRFTVSRDNSKNTLYLQMNSLRAEDTAVYYCAKQGDHIAWLLRGINFDYWGQGVLVTVSS
VL: EIVLTQSPGTLSLSPGERATLSCRASQSVSSSYLAWYQQKPGQAPRLLIYGASTRATGIPDRFSGRGSGTDFTLTISSLEPEDFAVYYCQNYGSPFLFTFGPGTKVDIKR
B2: AT10-002 (antibody, V domains shown)
VH: QLQLQESGPRLVKPSETLSLTCSVSGVSISSSNYYWGWIRQPPGKGLEWIGTIYHSGSTYYNPSLKSRLIISVDTSKNQFYLQLTSLTAADSAVYYCATGGGFGWSQTYFGYWGQGTLVTASS
VL: QSALTQPASVSGSPGQSITISCTGTSSDVGAYNYVSWYQHHPGKAPKLMIYDVTYRPSGVSTRFSGSKSGNTASLTISGLQAEDEADYYCSSQSRSSTLVIFGGGTKLTVLG
B3: AT10-003 (antibody, V domains shown)
VH: QVHLVQSGAEVRKPGASVKVSCKVSGYTLNELSIHWLRQAPGRGLEWMGSFDPEDGETIYAQKFQGRVTMTGDTSTDTAYLELTSLRSEDTALYYCARGWGAVTSPFDFWGQGTLVTVSS
VL: DIVMTQSPLSLPVTPGEPASISCRSSQSLLHSNGHIYFDWYLQKPGQSPQLLIYLVSKRASGVPDRFSGSGSGTDFTLKISRVEAEDVGVYYCMQALETPFTFGPGTKVHIKR
B4: AT10-004 (antibody, V domains shown)
VH: QVQLVQSGAEVRKPGASVKVSCKASGYTFTRHGISWVRQAPGQGLEWMGWISAYTGDTDYAQKFQGRVTMTTDTSTNTAYMELRSLRSDDAAVYYCARLRLQGEVVVPPSQSNWFDPWGQGTLVTVSS
VL: EIVLTQSPATLSLYPGERATLSCRASQSVSRYLAWYQQKPGQAPRLLIYDASNRATGIPARFSGSGSGTDFTLTISSLEPEDFAVYYCQQRSNWLKITFGQGTRLEIKG

Columns and labels:
[1] = target: T1, H3 HA1 subunit (A/Aichi/2/1968, HA1 subunit, Met-1-Arg 345) (Influenza A virus H3N2 A/Aichi/2/1968, UniProt P03437 17-345); test: ELISA; HA1 subunit coated 1 µg/ml; recombinant antibody
T1 construct: range 1-345; also called H3N2 A/Aichi/2/1968 HA1 subunit

[2] = target: T1, H3 HA1 subunit (A/Aichi/2/1968, HA1 …); test: ELISA; antigen coated 1 µg/ml; recombinant antibody; parameters: concentration or dose not given beside the values

| Binder | binding result [1] | OD 450 nm [2] |
| --- | --- | --- |
| B1 | no binding | 0.01 OD 450 nm |
| B2 | – | -0.006 OD 450 nm |
| B3 | – | 1.28 OD 450 nm |
| B4 | no binding | 0.096 OD 450 nm |
